{"source": "patent US20050266512", "system": "native proaerolysin"}
{"substance": "trypsin", "values": [{"measurement": "decrease in absorbance (erythrocyte lysis in response to channel formation by active aerolysin)", "result": "The solid line represents native proaerolysin activated with trypsin."}]}
